# Source: patent publication US20250215089A1
# Experiments:
# human CD40 (human) [1] = target: human CD40 (human) (UniProt P25942); assay: FACS, CHO-K1/hCD40 cells
# human PD-L1 (human) [2] = target: human PD-L1 (human) (UniProt Q9NZQ7); assay: cell-based or functional assay
# [3] = target: cynomolgus monkey CD40 (cynomolgus monkey); assay: FACS, CHO-K1/cyCD40 cells
# human CD40 (human) [4] = target: human CD40 (human) (UniProt P25942); assay: FACS, Raji cells
# [5] = target: cynomolgus monkey PD-L1 (cynomolgus monkey); assay: FACS, CHO-K1/cyPD-L1 cells
# human PD-L1 (human) [6] = target: human PD-L1 (human) (UniProt Q9NZQ7); assay: FACS, NCI-H226 cells
# human PD-L1 (human) [7] = target: human PD-L1 (human) (UniProt Q9NZQ7); assay: FACS, CHO-K1/hPD-L1 cells
# human PD-L1 (human), sequence (Q9NZQ7 19-290): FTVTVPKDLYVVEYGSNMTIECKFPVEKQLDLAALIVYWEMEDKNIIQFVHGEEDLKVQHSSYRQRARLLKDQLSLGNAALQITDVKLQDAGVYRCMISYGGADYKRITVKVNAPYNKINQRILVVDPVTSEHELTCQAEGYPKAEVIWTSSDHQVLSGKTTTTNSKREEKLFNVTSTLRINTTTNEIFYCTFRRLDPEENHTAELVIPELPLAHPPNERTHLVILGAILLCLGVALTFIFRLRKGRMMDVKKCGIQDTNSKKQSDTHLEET
# human CD40 (human), sequence (P25942 21-277): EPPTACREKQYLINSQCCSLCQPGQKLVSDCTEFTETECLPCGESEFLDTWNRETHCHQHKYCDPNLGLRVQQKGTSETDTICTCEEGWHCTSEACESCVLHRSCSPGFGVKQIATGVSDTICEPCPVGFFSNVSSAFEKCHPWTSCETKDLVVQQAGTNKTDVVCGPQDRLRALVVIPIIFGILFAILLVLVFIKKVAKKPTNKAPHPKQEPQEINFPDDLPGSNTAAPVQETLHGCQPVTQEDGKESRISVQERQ
Maximum MFI (human CD40 (human) [1]) [MFI],"Maximum RLU, Jurkat-NFAT-hPD1 reporter (human PD-L1 (human) [2]) [RLU]",Maximum MFI [3] [MFI],Maximum MFI (human CD40 (human) [4]) [MFI],Maximum MFI [5] [MFI],Maximum MFI (human PD-L1 (human) [6]) [MFI],Maximum MFI (human PD-L1 (human) [7]) [MFI],Substance
23,403,59,78,50,55,170,Isotype (antibody)
,2370,,,,,86,hIgG1 (antibody)
